target: HLA-A*02:01 (Homo sapiens, UniProt P04439, D140Y/D185E/D98H/E176V/E277Q/G131W/G231S/I119V/I121R/I166T/I218V/L300P/L318F/N151K/N90K/P208A/P217A/Q86G/Q94H/R138H/R169H/T345S); assay: MHC binding assay: UV-ligand exchange with beta2m ELISA (peptide exchange yield); details: binding to HLA-A*02:01
Outline: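 Values give exchange yield, measured by β2m ELISA: 100-fold-diluted monomers bound to streptavidin plates (1h, 37° C), probed with HRP anti-β2m at 2 ug/ml and read at 450 nm after TMB. Monomers came from UV-triggered cleavage of a photolabile peptide and exchange for the test peptide.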

Substance	Peptide exchange (MHC class I binding score, peptide exchange yield)
248 (FLFPNQYVDV; listed as Homo sapiens) [compound 248]	“+++” (≥50 = +++)
512 (SLSEIVPCL; listed as Homo sapiens) [compound 512]	“+++” (≥50 = +++)
212 (ALWDQDNLSV; listed as Homo sapiens) [compound 212]	“++” (≥20% = ++)
489 (KMWEELPEVV; listed as Homo sapiens) [compound 489]	“+++” (≥50 = +++)
278 (QLLDVVLTI; listed as Homo sapiens) [compound 278]	“++” (≥20% = ++)
215 (QLINHLHAV; listed as Homo sapiens) [compound 215]	“+++” (≥50 = +++)
373 (SLLEDKGLAEV; listed as Homo sapiens) [compound 373]	“++” (≥20% = ++)
330 (QLALKVEGV; listed as Homo sapiens) [compound 330]	“+++” (≥50 = +++)
19 (FMVDNEAIYDI; listed as Homo sapiens) [compound 19]	“++++” (≥75% = ++++)
399 (YLFEPLYHV; listed as Homo sapiens) [compound 399]	“+++” (≥50 = +++)
87 (ALPEAPAPLLPHIT; listed as Homo sapiens) [compound 87]	“++” (≥20% = ++)
590 (SLIEKLWQT; listed as Homo sapiens) [compound 590]	“++” (≥20% = ++)
484 (SLIEKVTQL; listed as Homo sapiens) [compound 484]	“+++” (≥50 = +++)
571 (LLLTTIPQI; listed as Homo sapiens) [compound 571]	“+++” (≥50 = +++)
478 (YLLHEKLNL; listed as Homo sapiens) [compound 478]	“+++” (≥50 = +++)
354 (LILEGVDTV; listed as Homo sapiens) [compound 354]	“++” (≥20% = ++)
454 (KLPPPPPQA; listed as Homo sapiens) [compound 454]	“+++” (≥50 = +++)

Substance	Peptide exchange (MHC class I binding score, peptide exchange yield)
444 (GLLRDEALAEV; listed as Homo sapiens) [compound 444]	“+++” (≥50 = +++)
448 (NLLETKLQL; listed as Homo sapiens) [compound 448]	“+++” (≥50 = +++)
199 (ALQDVPLSSV; listed as Homo sapiens) [compound 199]	“+++” (≥50 = +++)
507 (KLIDDQDISISL; listed as Homo sapiens) [compound 507]	“+++” (≥50 = +++)
389 (LLADVTHLL; listed as Homo sapiens) [compound 389]	“++” (≥20% = ++)
506 (KLLGKVETA; listed as Homo sapiens) [compound 506]	“+++” (≥50 = +++)
279 (ALWGGTQPLL; listed as Homo sapiens) [compound 279]	“++” (≥20% = ++)
171 (LLLPLQILL; listed as Homo sapiens) [compound 171]	“+++” (≥50 = +++)
132 (LLVEQPPLAGV; listed as Homo sapiens) [compound 132]	“+++” (≥50 = +++)
613 (RLLPPGAVVAV; listed as Homo sapiens) [compound 613]	“+++” (≥50 = +++)
52 (FLLAHGLGFLL; listed as Homo sapiens) [compound 52]	“++++” (≥75% = ++++)
595 (VLLSIYPRV; listed as Homo sapiens) [compound 595]	“+++” (≥50 = +++)
555 (YVLEGLKSV; listed as Homo sapiens) [compound 555]	“+++” (≥50 = +++)
592 (RLLSAAENFL; listed as Homo sapiens) [compound 592]	“+++” (≥50 = +++)
345 (VIWKALIHL; listed as Homo sapiens) [compound 345]	“+++” (≥50 = +++)
544 (LLWDVPAPSL; listed as Homo sapiens) [compound 544]	“+++” (≥50 = +++)

Other lines, results leading:

Peptide exchange (MHC class I binding score, peptide exchange yield)	Substance
“++” (≥20% = ++)	128 (YLFDDPLSAV; listed as Homo sapiens) [compound 128]
“+++” (≥50 = +++)	472 (KLLEVSDDPQV; listed as Homo sapiens) [compound 472]
“+++” (≥50 = +++)	313 (VLFDDELLMV; listed as Homo sapiens) [compound 313]
“+++” (≥50 = +++)	192 (KMLDGASFTL; listed as Homo sapiens) [compound 192]
“++” (≥20% = ++)	516 (AVGPASILKEV; listed as Homo sapiens) [compound 516]
“+++” (≥50 = +++)	346 (LLDSKVPSV; listed as Homo sapiens) [compound 346]
“++++” (≥75% = ++++)	196 (YLYSVEIKL; listed as Homo sapiens) [compound 196]
“+++” (≥50 = +++)	107 (FLQPVDDTQHL; listed as Homo sapiens) [compound 107]
“++” (≥20% = ++)	580 (LLMENAERV; listed as Homo sapiens) [compound 580]
“+++” (≥50 = +++)	6 (VLVSDGVHSV; listed as Homo sapiens) [compound 6]
“+++” (≥50 = +++)	118 (KLIDNNINV; listed as Homo sapiens) [compound 118]
“+++” (≥50 = +++)	136 (YLADPSNLFVV; listed as Homo sapiens) [compound 136]
“+++” (≥50 = +++)	591 (SMAELDIKL; listed as Homo sapiens) [compound 591]
“+++” (≥50 = +++)	635 (SLDSTLHAV; listed as Homo sapiens) [compound 635]
“++” (≥20% = ++)	64 (YAAPGGLIGV; listed as Homo sapiens) [compound 64]
“+++” (≥50 = +++)	366 (RLLDMGETDLML; listed as Homo sapiens) [compound 366]
“+++” (≥50 = +++)	285 (QLLHVGVTV; listed as Homo sapiens) [compound 285]
“++++” (≥75% = ++++)	552 (GLLDLPFRVGV; listed as Homo sapiens) [compound 552]
“+++” (≥50 = +++)	267 (ALQDFLLSV; listed as Homo sapiens) [compound 267]
“++++” (≥75% = ++++)	340 (ALLSMTFPL; listed as Homo sapiens) [compound 340]
“+++” (≥50 = +++)	276 (ALFTFSPLTV; listed as Homo sapiens) [compound 276]
“+++” (≥50 = +++)	169 (NLPEYLPFV; listed as Homo sapiens) [compound 169]
“+++” (≥50 = +++)	95 (SVIPQIQKV; listed as Homo sapiens) [compound 95]
“+++” (≥50 = +++)	205 (SLYPGTETMGL; listed as Homo sapiens) [compound 205]
“+++” (≥50 = +++)	452 (ILLEHGADPNL; listed as Homo sapiens) [compound 452]
“+++” (≥50 = +++)	85 (KMSELRVTL; listed as Homo sapiens) [compound 85]
“++” (≥20% = ++)	374 (FLLQQHLISA; listed as Homo sapiens) [compound 374]
“+++” (≥50 = +++)	224 (TLIDAQWVL; listed as Homo sapiens) [compound 224]
